Experimental data from the nanobody polyreactivity screen of Harvey et al. (2022).

assay: yeast display, Sf9 membrane polyspecificity reagent, FACS + sequencing; frameworks hold sequencing errors
How it was run: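 In a synthetic yeast display library (Saccharomyces cerevisiae BJ5465), nanobody expression was induced with galactose for 36–48 hours. FACS gates were set low and high (top ~1%) using anti-HA fluorescence for expression and streptavidin fluorescence for binding of the Sf9 membrane reagent. Each polyreactivity label is drawn from the gate of origin.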

Sequence	polyreactivity (PSR sort gate)
QVQLVESGGGLVQAGGSLRLSCAASGSIVYYAMGWYRQAPGKERELVAAINTSGGSTYYADSVKGRFTISRDNAKNTVYLQMNSLKPEDTAVYYCAAVYVGYITGFKRGYWGQGTQVTVSS	high polyreactivity
QVQLVESGGGLVQAGGSLRLSCAASGSIYDSYDMGWYRQAPGKERELVAAITSGGSTNYADSVKGRFTISRDNAKITVYLQMNSLKPEDTAVYYCAAYYWYPVYYGYDYWGQGTQVTVSS	low polyreactivity
QVQLVESGGGLVQAGGSLRLSCAASGSIYGDNAMGWYRQAPGKERELVAAINYNGGRTYYADSVKGRFTISRDTAKNTVYLQMNSLKPEDTAVYSCAKDNYQAPVQQYPFDYWGQGTQVTVSS	low polyreactivity
QVQLVESGGGLVQAGGSLRLSCAASGSIYGYAMGWYRQAPGKERELVAAISGRGGRTYYADSVKGRFTISRDNAKNTVYLQMNSLKPEDTAVYYCNVQWRYPYHYTVDYWGQGTQVTVSS	high polyreactivity
QVQLVESGGGLVQAGGSLRLSCAASGSIYGYYAMGWSRQAPGKERELVAAISWSDGSTYYADSVKGRFTISRDNAKNTVYLQMNSLKPEDTAVYYCAARFTPYITSDDGHYDYWGQGTQVTVSS	low polyreactivity
QVQLVESGGGLVQAGGSLRLSCAASGSIYHYYAMGWYRQAPGKERELVAAISWSGGRTNYADSVKGRFTISRDNAKNTVYLQMNSLKPEDTAVYYCAARARYPNWTYYYWGQGTQVTVSS	high polyreactivity
QVQLVESGGGLVQAGGSLRLSCAASGSIYPNYTMGWYRQAPGKERQLVAAITISGGTTYYSDSVKGRFTISRDNAKNTVYLQMISLKPEDTAVYYCADYHRDRNSGFDYWGQGTQVTVSS	high polyreactivity
QVQLVESGGGLVQAGGSLRLSCAASGSIYQNAMGWYRQAPGKQRELVAAITSSGGRTYADSVKGRFTISRDNAKNTVYLQMNSLIPEDTAVYYCAKDSTADELNGFDYWGQGTQVTVSS	low polyreactivity
QVQLVESGGGLVQAGGSLRLSCAASGSIYRRNAMGWYRKAPRKERELVAAISSNGGSTYYADSVKGRFTISRDNAMNTVYLQMNSLKPEDSAVYYCAASPSGWRYDYWGQGTQVTVSS	high polyreactivity
QVQLVESGGGLVQAGGSLRLSCAASGSIYRTNAMGWYRQAPGKERELVAAITGSGGSTYYADSVKGRFTISRDNAKNTVYLQMNSLKPEDTAVYYCAAEFGSFVSPYNYYYWGQGTQVTVSS	low polyreactivity
QVQLVESGGGLVQAGGSLRLSCAASGSIYRYAMGWYRQAPGKEREFVAAITGGSGSTYYADSVKGRFTISRDNAKNTVYLQMNSLKPEDTAVYYCAASIWRGLTPLLIGFDYWGQGTQVTVSS	high polyreactivity
QVQLVESGGGLVQAGGSLRLSCAASGSIYRYNDMGWYRQAPGKERELVATITSGTNTYYADSVKGRFTISRDNAKNTVYLQMNSLKPEDTAVYYCAKSYIAWDGRTFEEMYYWGQGTQVTVSS	low polyreactivity
QVQLVESGGGLVQAGGSLRLSCAASGSIYRYYDMGWYRQAPGKERELVAAITYSGGGTYYADSVKGRFTISRDNAKNTVYLQMNSLKPEDTAVYYCAAEPYYGWKRLDYWGQVTQVTVSS	low polyreactivity
QVQLVESGGGLVQAGGSLRLSCAASGSIYSHYAMGWYRQAPGKERELVAAITKSGSTTYYADSVKGRFTSSRDNAKNTVYLQMNSLKPEDTAVYDCWGQGTQVTVSS	low polyreactivity
QVQLVESGGGLVQAGGSLRLSCAASGSIYSNAMGWYRPAPGKERELVAAISGSGSTTYYADSVKGRFTISRDNAKNTVYLQMNSLKPEDTAVYYCARGVYGRGRTERYYWGQGTQVIVSS	high polyreactivity
QVQLVESGGGLVQAGGSLRLSCAASGSIYSTYAMGWYRQAPGKERELVAAITSDGTYADSVKGRFTISRDNARNTVYLQMNSLKPEDTAVYYCAAYYPYTRHGDYWGQGTQVTVSS	low polyreactivity
QVQLVESGGGLVQAGGSLRLSCAASGSIYTNAMGWYRQAPGKERELVAAISWSGGRTYYADSVKGRFTISRDNAKNTVYLQMNSLKPEDTAVYYCAADYYYSQVAYDYWGQGTQVTVSS	high polyreactivity
QVQLVESGGGLVQAGGSLRLSCAASGSIYVKGWYRQAPGKERELVAAISTNGGRTYYADSVKGRFTISRDNAKITVYLQLTSLKPEDTAVYYCAVRTTPKTRRFYYWGQGTQVTVSS	high polyreactivity
QVQLVESGGGLVQAGGSLRLSCAASGSIYVNAMGWYRQEPGKERELVAVISKSGGSTYYADSVKGRFTISRDNAKNTVYLQMNSLKPEDTAVYYCATRGVSPSRPGYYWGQGTKVTVSS	high polyreactivity
QVQLVESGGGLVQAGGSLRLSCAASGSIYWYAMGWYRQAPGKERELVAAISRRGGSTYYADSVKGRFTISRDNDKNTVYLQMNSLKPEDTAVYYCAVGIYGEYDYWGQGTQVTVSS	high polyreactivity
QVQLVESGGGLVQAGGSLRLSCAASGSIYYAMGWYRQAPGKEREFVAAINSGGSTYYADSVKGRFTISRDNAKNTVYLQMNSLKPEDTAVYYCAADVWTPYLMSLKYGYDYWGQGTQVTVSS	low polyreactivity
QVQLVESGGGLVQAGGSLRLSCAASGSIYYNAMGWYRQAPGKERELVAGITWSGGSTYYADSVKGRFTISRDNAKNTVYLQMNSLKPEDTAVYYCAADFVYLGTHYGAYDYWGQGTQVTVSS	low polyreactivity

Sequence	polyreactivity (PSR sort gate)
QVQLVESGGGLVQAGGSLRLSCAASGSLFGDYVMGWSRQAPGKERELVAAINRGGSTYYADSVKGRFTISRDNAKNTVYLQMNSLKPEDTAVYYGAAGYPSWYYGYPYDSWGQGTQVTVSS	low polyreactivity
QVQLVESGGGLVQAGGSLRLSCAASGSLFKRNAMGWYRQAPGKERELVAAITSSGGRTYYADSVKGRFTISRDNAKNTVYLLMNSLKPEDTAVYYCNKVRAGRDERRAGDYWGQGTQVTVSS	high polyreactivity
QVQLVESGGGLVQAGGSLRLSCAASGSLFKYYAMGWYRQAPGKERELVAAITIGGNTNYADSVKGRFTISRDNAKNTVYLQMNSLKPEDTAVYYCATGGYYSAIVYGGYDYWGQGTQVTVSS	low polyreactivity
QVQLVESGGGLVQAGGSLRLSCAASGSLFRYYVMGWYRQAPGKERELVAAISSRGGSTYYADSVKGRFTISRDNAKNSVYLLMNSLKPEDTAFYYCAARFGGWDRGLDYWGQGTLVTVSS	high polyreactivity
QVQLVESGGGLVQAGGSLRLSCAASGSLFSWYTKGWYRQAPGKERELVAAISRSGGRTYYADSVKGRFTISRDNAKNTVYLQMNSLKPEDTAVYSCAARVYSYYGSRGQRYDYWGQGTQVTVSS	high polyreactivity
QVQLVESGGGLVQAGGSLRLSCAASGSLFYINAMGWYRQAPGKERELVAAITSDGSTYYADSVKGRFTISRDNAKNTVYLQMNSLKPEDTAVYYCAADLTSDQYLYYWYWFYSWGQGTQVTVSS	low polyreactivity
QVQLVESGGGLVQAGGSLRLSCAASGSMFYKNAMVWYRQAPGKEREMVAAINSVGSTDYADSVKGRFTISRDNAKNTVYLQMNSLTPEDTAVYYCAATNLFTIIDYDYWGQGTQVTVSS	low polyreactivity
QVQLVESGGGLVQAGGSLRLSCAASGSMFYYYAMGWYRQPPGKERELVAAISSGGVGSTTYADSVKGRFTISRDNAKNTVYLQMNSLKPEDTAVYYCNADRPGYFYFYFNYWGQGTQVTVSS	high polyreactivity
QVQLVESGGGLVQAGGSLRLSCAASGSNFAVYAMGWYRQAPGKERELVATIRWNGGSTYYADSVKGRFTISRDNAKNTVYLQMNSLKQEDTAVYYCAKEYSTYVSKKSAYRYYYWGQGTQVTVSS	high polyreactivity
QVQLVESGGGLVQAGGSLRLSCAASGSNFDFYAMGWYRQAPGKERELVAAISSSGTSTYYADSVKGRFTISRDNAKNTVYLQMNSLKPEDTAVYYCAAVYSRSGYTWREYGYWGQGTQVTVSS	low polyreactivity
QVQLVESGGGLVQAGGSLRLSCAASGSNFDIYGMGWYRQAPGKERELVASISGGAGSTNYADSVKGRFTISRDNAKNTVYLQMNSLKPEDTAVYYCAAEVYVPDSFQHKFDVEYEYWGQGTQVTVSS	low polyreactivity
QVQLVESGGGLVQAGGSLRLSCAASGSNFDTYAMGRYRQAPGKERELVAAITRRAGSTYYADSVKGRFRISRDNAKNTVYLQMNSLKPEDTSVYYCAADFRYPDIYGGYDYWGQGTQVTVSS	low polyreactivity
QVQLVESGGGLVQAGGSLRLSCAASGSNFENYAMGWYRQAPGKERELVAAISSNGGSTYYADSVKGRFTLSRDKAKNTVYLQKNSLKPEDTAVYYCNKGRYYRQIYDYWGQGTQVTVSS	high polyreactivity
QVQLVESGGGLVQAGGSLRLSCAASGSNFFSYAMGWYREAPGKERELVAAIDYSGGGTYYADSVKGRFTISRDNAKNTVYLQMNSLKPEDTAVYYCNSDTEVWADTFISYRALNYWGQGTQVTVSS	low polyreactivity
QVQLVESGGGLVQAGGSLRLSCAASGSNFGKYAMGWYRPAPGKERELVATITRRGGSTYYADSVKGRFTISRDNAKNTVYLQMNSLKPEDSAVYYCAKRSNGYVDYGYWGQGTQVTVSS	high polyreactivity
QVQLVESGGGLVQAGGSLRLSCAASGSNFHPNGMGRYRQAPRTERELVAAIRRSGGSTYYADSVKGRFTISRDNAKNTVYLQMISLKAEDTAVYYCAAKHYYYSRYVRYDPPPGYYWGQGTQVTVSS	high polyreactivity
QVQLVESGGGLVQAGGSLRLSCAASGSNFKTYVMGWSRQAPGKERELVAAITSSGGRTYYADSVKGRFTISRDNAKNSVYLQMNSLKPEDTAVYYCNTAPRWVGRNDYWGQGTQVTVSS	high polyreactivity
QVQLVESGGGLVQAGGSLRLSCAASGSNFLKNAMGWYRQAPGKERELVAAITSGGSTYYADSVKGRFTISRDNAKNTVYLQMNSLKPEDTAVYYCADETSPSWYTWVTYDYWGQGTQVTVSS	high polyreactivity
QVQLVESGGGLVQAGGSLRLSCAASGSNFNRYAMGWYRQAPGKERELVAAISRSGGRTYYADSVKGRFTISRDNAKNTVYLQMNSLKPEDTAVYYCAAGGRWFYIDDDWGQGTQVTVSS	high polyreactivity
QVQLVESGGGLVQAGGSLRLSCAASGSNFNYYVMGGYRQAPGKERELVAAISRSGTSTYYADSVKGRFTISRDNAKNTVYLQMNRLKPEDSSVYYCAARVSHKYRTYYYWGQGTQVTVSS	high polyreactivity
QVQLVESGGGLVQAGGSLRLSCAASGSNFPVYAMGWYRQAPGKEREFVAAISYSGGGTYYADSVKGRFTISRDNAKNTVYLQMNSLKPEDTAVYYCAADVSGWEYAYWGQGTQVTVSS	low polyreactivity
